Values quoted from earlier work as cited in patent US20130136753A1, “PAXILLIN AS A THERAPEUTIC OR DIAGNOSTIC MARKER FOR CANCER” (UNIVERSITY OF ROCHESTER, priority 2010, published 2013).

B1: Aptamer aptTOV1: aptamer binding ovarian clear cell carcinoma cell line TOV-21G (nucleic acid)
chain: UCCAGAGUGACGCAGCAGAUCUGUGUAGGAUCGCAGUGUAGUGGACAUUUGAUACGACUGGCUCGACACGGUGGCUUA
modifications: listed as RNA, chemistry not given here
B2: Aptamer S6: RNA aptamer binding HER-2 overexpressing breast cancer cells (nucleic acid)
chain: GGGAGAUACCAGCUUAUUCAAUUUGGAUGGGGAGAUCCGUUGAGUAAGCGGGCGUGUCUCUCUGCCGCCUUGCUAUGGGGAGAUAGUAAGUGCAAUCU
modifications: listed as RNA, chemistry not given here

How the values were obtained:
[1] = system: ovarian clear cell carcinoma cell line TOV-21G; settings: cited from earlier work
[2] = system: HER-2 overexpressing breast cancer cells; settings: cited from earlier work

Row | Molecule | binding to TOV-21G cells [1] | binding to HER-2 overexpressing breast cancer cells [2]
1 | B1 | high affinity | –
2 | B2 | – | binds specifically
